{
  "source": "patent US20110076723A1",
  "about": "“ANTIBODY-PEPTIDE FUSED SYNERGIBODY” (SAMSUNG ELECTRONICS CO., LTD., priority 2008, published 2011)",
  "molecules": {"B1": {"name": "Syn-Ang-VEGFR-6: fused protein synergibody SAITAng-2-2 × DTN6VEGFR-2-1, peptide at C-terminal of heavy chain (protein)", "heavy (part 1 of 2)": "QVQLQQSGPELVKPGASVKMSCKASGYTFTDYVISWVKQRTGQGLEWIGEIYPGSGSTYYNEKFKGKASLTADKSSNTAYMQLSSLTSADSAVYFCVRSRGDYYAMDYWGQGTSVTVSS", "heavy (part 2 of 2)": "TGSDDLCYTFPCMHY", "light": "DIQMTQSPSSLSASLGGKVTITCKASQDINNYITWYQHKPGKGPRLLIHYTSTLQPGIPSRFSGSGSGRDYSFSISNLEPEDIATYYCLQYDNLLTFGGGTKLEIK", "modifications": "left off: a dimerising Fc or GST", "notes": "fused protein synergibody SAITAng-2-2 × DTN6VEGFR-2-1, peptide at C-terminal of heavy chain"}, "B2": {"name": "Syn-Ang-VEGFR-8: fused protein synergibody SAITAng-2-2 × DTN9VEGFR-2-3, peptide at C-terminal of heavy chain (protein)", "heavy (part 1 of 2)": "B1 heavy (part 1 of 2)", "heavy (part 2 of 2)": "EAGAYWCKAWGLSPCLVT", "light": "B1 light", "modifications": "left off: a dimerising Fc or GST", "notes": "fused protein synergibody SAITAng-2-2 × DTN9VEGFR-2-3, peptide at C-terminal of heavy chain"}, "B3": {"name": "Syn-Ang-VEGFR-10: fused protein synergibody SAITAng-2-2 × DTN11VEGFR-2-5, peptide at C-terminal of heavy chain (protein)", "heavy (part 1 of 2)": "B1 heavy (part 1 of 2)", "heavy (part 2 of 2)": "PGSQGYCHLNMRYQWICDSE", "light": "B1 light", "modifications": "left off: a dimerising Fc or GST", "notes": "fused protein synergibody SAITAng-2-2 × DTN11VEGFR-2-5, peptide at C-terminal of heavy chain"}, "B4": {"name": "Syn-Ang-VEGFR-7: fused protein synergibody SAITAng-2-2 × DTN8VEGFR-2-2, peptide at C-terminal of heavy chain (protein)", "heavy (part 1 of 2)": "B1 heavy (part 1 of 2)", "heavy (part 2 of 2)": "EAGKETCGYEWQYCPRP", "light": "B1 light", "modifications": "left off: a dimerising Fc or GST", "notes": "fused protein synergibody SAITAng-2-2 × DTN8VEGFR-2-2, peptide at C-terminal of heavy chain"}, "B5": {"name": "Syn-Ang-VEGFR-9: fused protein synergibody SAITAng-2-2 × DTN10VEGFR-2-4, peptide at C-terminal of heavy chain (protein)", "heavy (part 1 of 2)": "B1 heavy (part 1 of 2)", "heavy (part 2 of 2)": "TGSGRMCDGSGPPTNCWFT", "light": "B1 light", "modifications": "left off: a dimerising Fc or GST", "notes": "fused protein synergibody SAITAng-2-2 × DTN10VEGFR-2-4, peptide at C-terminal of heavy chain"}, "B6": {"name": "Syn-Ang-VEGFR-11: fused protein synergibody SAITAng-2-3 × DTN6VEGFR-2-1, peptide at C-terminal of heavy chain (protein)", "heavy (part 1 of 2)": "DVQLVESGGGLVQPGGSRKLSCAASGFTFSSFGMHWVRQAPEKGLEWVAYISSDSSTIYYADTVKGRFTISRDNPKNTLFLQMTSLRSEDTAMYYCAREGGYDDYYAMDYWGQGTSVTVSS", "heavy (part 2 of 2)": "TGSDDLCYTFPCMHY", "light": "DIQMTQSPASQSASLGESVTITCLASQTIGTWLAWYQQKPGKSPQLLIYAATSLADGVPSRFSGSGSGTKFSFKISSLQAEDFVSYYCQQLYSIPLTFGGGTKLEIK", "modifications": "left off: a dimerising Fc or GST", "notes": "fused protein synergibody SAITAng-2-3 × DTN6VEGFR-2-1, peptide at C-terminal of heavy chain"}, "B7": {"name": "Syn-Ang-VEGFR-12: fused protein synergibody SAITAng-2-3 × DTN8VEGFR-2-2, peptide at C-terminal of heavy chain (protein)", "heavy (part 1 of 2)": "B6 heavy (part 1 of 2)", "heavy (part 2 of 2)": "EAGKETCGYEWQYCPRP", "light": "B6 light", "modifications": "left off: a dimerising Fc or GST", "notes": "fused protein synergibody SAITAng-2-3 × DTN8VEGFR-2-2, peptide at C-terminal of heavy chain"}, "B8": {"name": "Syn-Ang-VEGFR-14: fused protein synergibody SAITAng-2-3 × DTN10VEGFR-2-4, peptide at C-terminal of heavy chain (protein)", "heavy (part 1 of 2)": "B6 heavy (part 1 of 2)", "heavy (part 2 of 2)": "TGSGRMCDGSGPPTNCWFT", "light": "B6 light", "modifications": "left off: a dimerising Fc or GST", "notes": "fused protein synergibody SAITAng-2-3 × DTN10VEGFR-2-4, peptide at C-terminal of heavy chain"}, "B9": {"name": "Syn-Ang-VEGFR-13: fused protein synergibody SAITAng-2-3 × DTN9VEGFR-2-3, peptide at C-terminal of heavy chain (protein)", "heavy (part 1 of 2)": "B6 heavy (part 1 of 2)", "heavy (part 2 of 2)": "EAGAYWCKAWGLSPCLVT", "light": "B6 light", "modifications": "left off: a dimerising Fc or GST", "notes": "fused protein synergibody SAITAng-2-3 × DTN9VEGFR-2-3, peptide at C-terminal of heavy chain"}},
  "note": "Where a SMILES comes first, the peptide text is derived from it. Bridges are numbered along the chain shown (N, C = ends).",
  "data": [
    {"system": "HUVEC", "assay": "Cell-based functional assay, endothelial cell tube formation (BD BioCoat Angiogenesis System)", "design": "species or system human", "settings": "5 μM fused protein synergibody, 18 hours; unrelated control group 12,227 ± 1,232", "experimental": "(§1) Chimeric antibodies may be screened by functional assays such as cell-based assay for inhibition activity. In this example, BD BioCoat™ Angiogenesis System-Endothelial Cell Tube Formation (BD Biosciences) is used. BD Falcon 96-well Black/Clear plate coated with BD Matrigel Matrix that had been stored at −20° C. is slowly melted at 4° C. for 6 hours, and the mat cover of the plate is removed inside a sterile clean bench. Then it is left at 37° C. , 5% CO2 for 30 minutes so that the Matrigel™ Matrix would form polymers. Then it is made into a suspension by treating HUVEC, cultured on a petridish containing EGM-2 MV (Lonza) medium added with 10% fetal bovine serum to 70 to 80% confluence, with 0.5% Trypsin-EDTA (Gibco). Then it is resuspended in a culture medium containing 10% fetal bovine serum to a cell concentration of 4×10^5 cells/ml. At this time, 5 μM of each anti-Ang-2 chimeric antibodies expressed and purified in Section 5 above are also added and resuspended. Then 50 μl (about 2×10^4 cells) of each of the suspension is added to each well of the plate and incubated at 37° C. , 5% CO2 for 18 hours. Then the medium is removed and each well is washed twice with 100 μl of Hanks' balanced salt solution (HBSS, Invitrogen) ensuring that the tubes of the cells formed on BD Matrigel™ Matrix are not damaged. 50 μl of calcein AM (BD sciences) dissolved in HBSS at the concentration of 8 μg/ml is added to each well. The plate is then left to react at 37° C., 5% CO2 for 30 minutes and the calcein AM (BD sciences) solution is removed and washed twice with HBSS. Lastly, an image of the length of the entire tube of HUVEC formed on BD Matrigel™ Matrix is obtained on a fluorescent microscope and analyzed by using MetaMorph® software (Universal Imaging Corporation™, http://www.moleculardevices.com).\n(§2) The peptides synthesized in Section 6A above are screened by cell-based functional assay for inhibition activity. The method described in Example 1, Section 7 is used, except that 5 μM synthesized peptides are added instead of anti-Ang-2 antibodies.\n(§3) The fused protein synergibodies prepared in Section 1 above are screened using cell-based functional assay for inhibition activity. The method described in Example 1, Section 7 is used, except that, in this example, 5 μM of fused protein synergibodies are added instead of anti-Ang-2 antibodies.", "values": [
      {"molecule": "B1", "Length of entire tube of HUVEC (2 × 10^4 cells) (pixels)": "6,157 ± 1,141 pixels"},
      {"molecule": "B2", "Length of entire tube of HUVEC (2 × 10^4 cells) (pixels)": "6,244 ± 935 pixels"},
      {"molecule": "B3", "Length of entire tube of HUVEC (2 × 10^4 cells) (pixels)": "5,898 ± 1,037 pixels"},
      {"molecule": "B4", "Length of entire tube of HUVEC (2 × 10^4 cells) (pixels)": "5,935 ± 995 pixels"},
      {"molecule": "B5", "Length of entire tube of HUVEC (2 × 10^4 cells) (pixels)": "6,055 ± 779 pixels"},
      {"molecule": "B6", "Length of entire tube of HUVEC (2 × 10^4 cells) (pixels)": "3,925 ± 675 pixels"},
      {"molecule": "B7", "Length of entire tube of HUVEC (2 × 10^4 cells) (pixels)": "3,899 ± 923 pixels"},
      {"molecule": "B8", "Length of entire tube of HUVEC (2 × 10^4 cells) (pixels)": "4,183 ± 698 pixels"},
      {"molecule": "B9", "Length of entire tube of HUVEC (2 × 10^4 cells) (pixels)": "4,216 ± 747 pixels"}
    ]},
    {"system": "HUVEC", "assay": "Cell-based functional assay, endothelial cell tube formation (BD BioCoat Angiogenesis System)", "design": "species or system human", "settings": "5 μM synthesized peptide, 18 hours; unrelated control group 12,227 ± 1,232", "experimental": "as §1, §2, §3", "values": [
      {"molecule": "CSCC[C@H](NC(=O)[C@@H]1CSSC[C@H](NC(=O)[C@H](CC(C)C)NC(=O)[C@H](CC(=O)O)NC(=O)[C@H](CC(=O)O)NC(=O)[C@H](CO)NC(=O)CNC(=O)[C@@H](N)[C@@H](C)O)C(=O)N[C@@H](Cc2ccc(O)cc2)C(=O)N[C@@H]([C@@H](C)O)C(=O)N[C@@H](Cc2ccccc2)C(=O)N2CCC[C@H]2C(=O)N1)C(=O)N[C@@H](Cc1c[nH]cn1)C(=O)N[C@@H](Cc1ccc(O)cc1)C(=O)O", "note": "[DTN6VEGFR-2-1] (H-TGSDDLCYTFPCMHY-OH; disulfide 7-12; N-terminus and C-terminus assumed)", "Length of the entire tube of HUVEC (2 × 10^4 cells) (pixels)": "11,093 ± 1,308 pixels"},
      {"molecule": "C[C@H](NC(=O)[C@@H](N)CCC(=O)O)C(=O)NCC(=O)N[C@@H](CCCCN)C(=O)N[C@@H](CCC(=O)O)C(=O)N[C@H](C(=O)N[C@H]1CSSC[C@@H](C(=O)N2CCC[C@H]2C(=O)N[C@@H](CCCNC(=N)N)C(=O)N2CCC[C@H]2C(=O)O)NC(=O)[C@H](Cc2ccc(O)cc2)NC(=O)[C@H](CCC(N)=O)NC(=O)[C@H](Cc2c[nH]c3ccccc23)NC(=O)[C@H](CCC(=O)O)NC(=O)[C@H](Cc2ccc(O)cc2)NC(=O)CNC1=O)[C@@H](C)O", "note": "[DTN8VEGFR-2-2] (H-EAGKETCGYEWQYCPRP-OH; disulfide 7-14; N-terminus and C-terminus assumed)", "Length of the entire tube of HUVEC (2 × 10^4 cells) (pixels)": "10,891 ± 1,014 pixels"},
      {"molecule": "CC(C)C[C@@H]1NC(=O)CNC(=O)[C@H](Cc2c[nH]c3ccccc23)NC(=O)[C@H](C)NC(=O)[C@H](CCCCN)NC(=O)[C@@H](NC(=O)[C@H](Cc2c[nH]c3ccccc23)NC(=O)[C@H](Cc2ccc(O)cc2)NC(=O)[C@H](C)NC(=O)CNC(=O)[C@H](C)NC(=O)[C@@H](N)CCC(=O)O)CSSC[C@@H](C(=O)N[C@@H](CC(C)C)C(=O)N[C@H](C(=O)N[C@H](C(=O)O)[C@@H](C)O)C(C)C)NC(=O)[C@@H]2CCCN2C(=O)[C@H](CO)NC1=O", "note": "[DTN9VEGFR-2-3] (H-EAGAYWCKAWGLSPCLVT-OH; disulfide 7-15; N-terminus and C-terminus assumed)", "Length of the entire tube of HUVEC (2 × 10^4 cells) (pixels)": "12,101 ± 869 pixels"},
      {"molecule": "CC[C@H](C)[C@@H]1NC(=O)[C@H](Cc2c[nH]c3ccccc23)NC(=O)[C@H](CCC(N)=O)NC(=O)[C@H](Cc2ccc(O)cc2)NC(=O)[C@H](CCCNC(=N)N)NC(=O)[C@H](CCSC)NC(=O)[C@H](CC(N)=O)NC(=O)[C@H](CC(C)C)NC(=O)[C@H](Cc2c[nH]cn2)NC(=O)[C@@H](NC(=O)[C@H](Cc2ccc(O)cc2)NC(=O)CNC(=O)[C@H](CCC(N)=O)NC(=O)[C@H](CO)NC(=O)CNC(=O)[C@@H]2CCCN2)CSSC[C@@H](C(=O)N[C@@H](CC(=O)O)C(=O)N[C@@H](CO)C(=O)N[C@@H](CCC(=O)O)C(=O)O)NC1=O", "note": "[DTN11VEGFR-2-5] (H-PGSQGYCHLNMRYQWICDSE-OH; disulfide 7-17; N-terminus and C-terminus assumed)", "Length of the entire tube of HUVEC (2 × 10^4 cells) (pixels)": "11,896 ± 1,159 pixels"},
      {"molecule": "CSCC[C@H](NC(=O)[C@H](CCCNC(=N)N)NC(=O)CNC(=O)[C@H](CO)NC(=O)CNC(=O)[C@@H](N)[C@@H](C)O)C(=O)N[C@H]1CSSC[C@@H](C(=O)N[C@@H](Cc2c[nH]c3ccccc23)C(=O)N[C@@H](Cc2ccccc2)C(=O)N[C@H](C(=O)O)[C@@H](C)O)NC(=O)[C@H](CC(N)=O)NC(=O)[C@H]([C@@H](C)O)NC(=O)[C@@H]2CCCN2C(=O)[C@@H]2CCCN2C(=O)CNC(=O)[C@H](CO)NC(=O)CNC(=O)[C@H](CC(=O)O)NC1=O", "note": "[DTN10VEGFR-2-4] (H-TGSGRMCDGSGPPTNCWFT-OH; disulfide 7-16; N-terminus and C-terminus assumed)", "Length of the entire tube of HUVEC (2 × 10^4 cells) (pixels)": "10,773 ± 992 pixels"}
    ]}
  ]
}
